Article doi:10.1101/2024.01.22.576614
Read-outs that look alike come from different tables or passages of the source.

Columns and labels:
Assay in all cases: two-hybrid
[1] = molecular target: cAMP-binding transcriptional regulator Clr (Sinorhizobium meliloti)
Leu zipper (Zip) [2] = molecular target: Leu zipper (Zip)
Leu zipper (Zip) [3] = molecular target: Leu zipper (Zip); remark: listed apart in the source

Chain of Leu zipper (Zip) (P03069 whole entry): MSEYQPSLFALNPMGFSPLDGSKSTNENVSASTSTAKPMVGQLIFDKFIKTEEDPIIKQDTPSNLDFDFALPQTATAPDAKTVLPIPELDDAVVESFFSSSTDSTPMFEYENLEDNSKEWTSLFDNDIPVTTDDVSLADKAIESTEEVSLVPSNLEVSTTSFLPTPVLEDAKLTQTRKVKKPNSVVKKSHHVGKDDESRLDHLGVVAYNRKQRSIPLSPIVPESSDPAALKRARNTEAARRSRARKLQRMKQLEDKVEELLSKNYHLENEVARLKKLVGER

Substance	BACTH β-galactosidase activity [1]	BACTH β-galactosidase activity (Leu zipper (Zip) [2])	BACTH β-galactosidase activity (Leu zipper (Zip) [3])
LysR-type transcriptional regulator Smc01817 (natural protein)	460 MU	–	–
Leu zipper (Zip) (domain or fragment)	–	1640 Miller-Units	1370 Miller-Units
